{
  "source": "patent US20180092966A1",
  "about": "(CSL, published 2018)",
  "key": {"[1]": {"target": "VWF-FP (albumin-fused von Willebrand Factor) (human)", "sequence (chain, as listed by the source)": "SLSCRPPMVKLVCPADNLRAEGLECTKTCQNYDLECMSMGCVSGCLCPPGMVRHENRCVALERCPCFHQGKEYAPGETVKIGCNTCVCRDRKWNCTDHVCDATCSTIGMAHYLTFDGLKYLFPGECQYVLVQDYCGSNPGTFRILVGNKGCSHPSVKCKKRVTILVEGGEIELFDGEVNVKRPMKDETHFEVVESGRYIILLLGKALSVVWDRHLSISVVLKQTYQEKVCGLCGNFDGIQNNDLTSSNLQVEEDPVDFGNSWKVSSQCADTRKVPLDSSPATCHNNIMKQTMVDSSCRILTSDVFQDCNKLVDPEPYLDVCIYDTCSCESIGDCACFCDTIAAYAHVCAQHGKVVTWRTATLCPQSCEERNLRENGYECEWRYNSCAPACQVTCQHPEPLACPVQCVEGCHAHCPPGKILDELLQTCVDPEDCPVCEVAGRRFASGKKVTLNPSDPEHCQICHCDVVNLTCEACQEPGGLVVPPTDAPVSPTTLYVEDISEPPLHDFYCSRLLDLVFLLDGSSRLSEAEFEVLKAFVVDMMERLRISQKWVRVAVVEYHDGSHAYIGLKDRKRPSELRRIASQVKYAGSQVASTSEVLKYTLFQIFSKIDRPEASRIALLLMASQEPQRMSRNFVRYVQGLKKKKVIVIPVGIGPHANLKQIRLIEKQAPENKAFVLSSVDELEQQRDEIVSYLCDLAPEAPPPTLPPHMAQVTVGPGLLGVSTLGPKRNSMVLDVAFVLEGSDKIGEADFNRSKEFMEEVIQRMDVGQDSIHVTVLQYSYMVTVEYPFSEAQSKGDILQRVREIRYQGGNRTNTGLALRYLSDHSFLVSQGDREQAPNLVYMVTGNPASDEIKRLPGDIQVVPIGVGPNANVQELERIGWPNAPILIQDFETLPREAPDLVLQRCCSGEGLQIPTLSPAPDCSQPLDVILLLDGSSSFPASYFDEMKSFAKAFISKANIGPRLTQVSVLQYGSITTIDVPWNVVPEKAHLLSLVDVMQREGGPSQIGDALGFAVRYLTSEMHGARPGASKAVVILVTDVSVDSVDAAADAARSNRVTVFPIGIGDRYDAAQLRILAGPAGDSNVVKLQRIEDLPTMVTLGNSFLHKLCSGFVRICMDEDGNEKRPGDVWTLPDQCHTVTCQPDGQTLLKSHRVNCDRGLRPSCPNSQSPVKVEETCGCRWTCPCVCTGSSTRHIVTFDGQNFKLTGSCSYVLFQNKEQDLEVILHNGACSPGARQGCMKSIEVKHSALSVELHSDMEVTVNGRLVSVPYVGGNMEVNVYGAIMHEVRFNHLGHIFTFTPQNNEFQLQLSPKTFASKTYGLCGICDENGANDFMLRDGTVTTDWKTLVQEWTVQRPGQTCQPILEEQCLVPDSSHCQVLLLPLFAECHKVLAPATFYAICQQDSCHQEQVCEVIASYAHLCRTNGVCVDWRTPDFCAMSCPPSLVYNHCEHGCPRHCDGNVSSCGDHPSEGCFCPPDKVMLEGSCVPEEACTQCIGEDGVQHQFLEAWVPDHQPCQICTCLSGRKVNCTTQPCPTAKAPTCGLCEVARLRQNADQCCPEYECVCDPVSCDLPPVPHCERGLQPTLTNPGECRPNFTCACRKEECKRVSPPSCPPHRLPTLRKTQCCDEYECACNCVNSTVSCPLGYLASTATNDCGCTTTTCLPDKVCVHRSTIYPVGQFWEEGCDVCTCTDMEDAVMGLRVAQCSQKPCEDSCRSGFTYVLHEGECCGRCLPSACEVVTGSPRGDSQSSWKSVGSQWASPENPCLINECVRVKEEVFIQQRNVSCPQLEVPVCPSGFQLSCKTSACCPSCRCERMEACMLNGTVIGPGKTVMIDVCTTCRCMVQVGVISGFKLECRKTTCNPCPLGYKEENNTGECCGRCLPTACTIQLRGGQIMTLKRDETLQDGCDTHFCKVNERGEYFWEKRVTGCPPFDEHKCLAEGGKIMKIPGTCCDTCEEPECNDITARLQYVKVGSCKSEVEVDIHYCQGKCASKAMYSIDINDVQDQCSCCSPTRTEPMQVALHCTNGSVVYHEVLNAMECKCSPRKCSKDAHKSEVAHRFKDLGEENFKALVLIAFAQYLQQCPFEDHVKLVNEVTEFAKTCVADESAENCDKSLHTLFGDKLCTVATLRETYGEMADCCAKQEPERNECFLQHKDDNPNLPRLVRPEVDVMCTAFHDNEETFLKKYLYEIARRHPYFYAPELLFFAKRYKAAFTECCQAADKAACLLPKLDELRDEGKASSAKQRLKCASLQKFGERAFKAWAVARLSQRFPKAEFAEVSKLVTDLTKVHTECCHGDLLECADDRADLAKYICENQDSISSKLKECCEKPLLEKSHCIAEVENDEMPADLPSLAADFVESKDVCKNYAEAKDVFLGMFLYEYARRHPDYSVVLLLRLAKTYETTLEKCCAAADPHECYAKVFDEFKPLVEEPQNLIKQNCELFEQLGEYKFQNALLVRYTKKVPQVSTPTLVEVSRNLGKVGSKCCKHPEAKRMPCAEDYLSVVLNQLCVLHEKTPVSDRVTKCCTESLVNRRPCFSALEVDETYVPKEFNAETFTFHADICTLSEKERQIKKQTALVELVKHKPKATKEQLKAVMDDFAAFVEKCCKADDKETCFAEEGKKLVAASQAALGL", "experiment": "covalent-FVIII ELISA over FVIII activity assay"}, "[2]": {"target": "VWF-FP (albumin-fused von Willebrand Factor) (human)", "experiment": "covalent-FVIII ELISA over FVIII antigen ELISA"}, "[3]": {"target": "T1, VWF-FP E1015C mutant (albumin-fused von Willebrand Factor) (human)", "T1 construct": "Stably expressed in CHO cells with furin co-transfected; also called VWF-FP mutant E1015C; Cys residue at VWF aa position 1015; not shown: linker between VWF and albumin, made in analogy to WO 2009/156137", "T1 sequence (chain, as listed by the source E1015C E1015C)": "as the sequence (chain, as listed by the source) above, with E252C counted along it", "experiment": "covalent-FVIII ELISA over FVIII antigen ELISA"}, "[4]": {"target": "T2, VWF-FP R768C mutant (albumin-fused von Willebrand Factor) (human)", "T2 construct": "Stably expressed in CHO cells with furin co-transfected; also called VWF-FP mutant R768C; Cys residue at VWF aa position 768; not shown: linker between VWF and albumin, made in analogy to WO 2009/156137", "T2 sequence (chain, as listed by the source R768C R768C)": "as the sequence (chain, as listed by the source) above, with R5C counted along it", "experiment": "covalent-FVIII ELISA over FVIII antigen ELISA"}, "[5]": {"target": "T3, VWF-FP N1134C mutant (albumin-fused von Willebrand Factor) (human)", "T3 construct": "Stably expressed in CHO cells with furin co-transfected; also called VWF-FP mutant N1134C; Cys residue at VWF aa position 1134; not shown: linker between VWF and albumin, made in analogy to WO 2009/156137", "T3 sequence (chain, as listed by the source N1134C N1134C)": "as the sequence (chain, as listed by the source) above, with N371C counted along it", "experiment": "covalent-FVIII ELISA over FVIII antigen ELISA"}, "[6]": {"target": "T4, VWF-FP K1116C mutant (albumin-fused von Willebrand Factor) (human)", "T4 construct": "Stably expressed in CHO cells with furin co-transfected; also called VWF-FP mutant K1116C; Cys residue at VWF aa position 1116; not shown: linker between VWF and albumin, made in analogy to WO 2009/156137", "T4 sequence (chain, as listed by the source K1116C K1116C)": "as the sequence (chain, as listed by the source) above, with K353C counted along it", "experiment": "covalent-FVIII ELISA over FVIII antigen ELISA"}, "[7]": {"target": "T1, VWF-FP E1015C mutant (albumin-fused von …)", "experiment": "ELISA of co-expression supernatant: anti-VWF capture, 350 mM CaCl2 wash, anti-FVIII detection", "description": "(§1) Cell culture supernatant samples (10 ml) from transient transfections were concentrated with Amicon Ultracell-30K (Millipore UFC903024; 3000 g centrifugation). FVIII covalently attached to VWF-FP in culture supernatant (concentrates) was determined by a standard ELISA. Briefly, microplates were incubated with 100 μL per well of the capture antibody (rabbit anti human VWF-IgG, Dako A0082 [Dako, Hamburg, Germany], diluted 1:2000 in buffer A [Sigma C3041, Sigma-Aldrich, Munich, Germany]) overnight at ambient temperature. After washing plates three times with buffer B (Sigma T9039), each well was incubated with 200 μL buffer C (Sigma T6789) for 1.5 hours at ambient temperature (blocking). After another three wash steps with buffer B, serial dilutions of the test sample in buffer B as well as serial dilutions of a control preparation of covalently linked FVIII-VWF-FP, (2.0-0.03 arbitrary U/ml in buffer B (we call these “arbitrary units” as they may not correspond to the standard FVIII units as determined using Standard Human Plasma); volumes per well: 100 μL) were incubated for 1.5 hours at ambient temperature. After three wash steps with buffer B, 200 μL of 350 mM CaCl₂ were added to each well and incubated for 1 hour at ambient temperature. CaCl₂ was removed (without washing) and additional 200 μl were added to each well and incubated further for 1 hour. After three wash steps with buffer B 100 μL of a 1:2 dilution in buffer B of the detection antibody (Detecting Antibody for FVIII:C, peroxidase labelled, Cedarlane CL20035K-D) were added to each well and incubated for 1 hour at ambient temperature. After three wash steps with buffer B, 100 μL of substrate solution (OUVF, Siemens Healthcare Diagnostics) were added per well and incubated for 15 minutes at ambient temperature in the dark. Addition of 100 μL undiluted stop dilution (OSFA, Siemens Healthcare Diagnostics) prepared the samples for reading in a suitable microplate reader at 450 nm wavelength. Concentrations of the test samples were then calculated using the standard curve with the control preparation."}, "[8]": {"target": "T2, VWF-FP R768C mutant (albumin-fused von …)", "experiment": "ELISA of co-expression supernatant: anti-VWF capture, 350 mM CaCl2 wash, anti-FVIII detection", "description": "as §1"}, "[9]": {"target": "T3, VWF-FP N1134C mutant (albumin-fused von …)", "experiment": "ELISA of co-expression supernatant: anti-VWF capture, 350 mM CaCl2 wash, anti-FVIII detection", "description": "as §1"}, "[10]": {"target": "T4, VWF-FP K1116C mutant (albumin-fused von …)", "experiment": "ELISA of co-expression supernatant: anti-VWF capture, 350 mM CaCl2 wash, anti-FVIII detection", "description": "as §1"}, "[11]": {"target": "T1, VWF-FP E1015C mutant (albumin-fused von …)", "experiment": "covalent-FVIII ELISA over FVIII activity assay"}, "[12]": {"target": "T2, VWF-FP R768C mutant (albumin-fused von …)", "experiment": "covalent-FVIII ELISA over FVIII activity assay"}, "[13]": {"target": "T3, VWF-FP N1134C mutant (albumin-fused von …)", "experiment": "covalent-FVIII ELISA over FVIII activity assay"}, "[14]": {"target": "T4, VWF-FP K1116C mutant (albumin-fused von …)", "experiment": "covalent-FVIII ELISA over FVIII activity assay"}, "[15]": {"target": "T5, VWF-FP H817C mutant (albumin-fused von Willebrand Factor) (human)", "T5 construct": "Stably expressed in CHO cells with furin co-transfected; also called VWF-FP mutant H817C; Cys residue at VWF aa position 817; not shown: linker between VWF and albumin, made in analogy to WO 2009/156137", "T5 sequence (chain, as listed by the source H817C H817C)": "as the sequence (chain, as listed by the source) above, with H54C counted along it", "experiment": "covalent-FVIII ELISA over FVIII antigen ELISA"}, "[16]": {"target": "T5, VWF-FP H817C mutant (albumin-fused von …)", "experiment": "ELISA of co-expression supernatant: anti-VWF capture, 350 mM CaCl2 wash, anti-FVIII detection", "description": "as §1"}, "[17]": {"target": "T5, VWF-FP H817C mutant (albumin-fused von …)", "experiment": "covalent-FVIII ELISA over FVIII activity assay"}},
  "data": [
    {"molecule": "FVIII-SingleChain with VWF-derived C3-C4-C5-C6-CK sequence added to its C-terminus and a thrombin cleavage site between them", "values": [
      {"measurement": "ratio of covalent FVIII to total FVIII activity", "setting": "[1]", "value": 5.78},
      {"measurement": "ratio of covalent FVIII to total FVIII antigen", "setting": "[2]", "value": 7.47}
    ]},
    {"molecule": "Factor VIII SingleChain Q1686C mutant (other, Single-chain FVIII with partial B-domain deletion; also called FVIII-SC Q1686C; Cys residue at FVIII aa position 1686) ATRRYYLGAVELSWDYMQSDLGELPVDARFPPRVPKSFPFNTSVVYKKTLFVEFTDHLFNIAKPRPPWMGLLGPTIQAEVYDTVVITLKNMASHPVSLHAVGVSYWKASEGAEYDDQTSQREKEDDKVFPGGSHTYVWQVLKENGPMASDPLCLTYSYLSHVDLVKDLNSGLIGALLVCREGSLAKEKTQTLHKFILLFAVFDEGKSWHSETKNSLMQDRDAASARAWPKMHTVNGYVNRSLPGLIGCHRKSVYWHVIGMGTTPEVHSIFLEGHTFLVRNHRQASLEISPITFLTAQTLLMDLGQFLLFCHISSHQHDGMEAYVKVDSCPEEPQLRMKNNEEAEDYDDDLTDSEMDVVRFDDDNSPSFIQIRSVAKKHPKTWVHYIAAEEEDWDYAPLVLAPDDRSYKSQYLNNGPQRIGRKYKKVRFMAYTDETFKTREAIQHESGILGPLLYGEVGDTLLIIFKNQASRPYNIYPHGITDVRPLYSRRLPKGVKHLKDFPILPGEIFKYKWTVTVEDGPTKSDPRCLTRYYSSFVNMERDLASGLIGPLLICYKESVDQRGNQIMSDKRNVILFSVFDENRSWYLTENIQRFLPNPAGVQLEDPEFQASNIMHSINGYVFDSLQLSVCLHEVAYWYILSIGAQTDFLSVFFSGYTFKHKMVYEDTLTLFPFSGETVFMSMENPGLWILGCHNSDFRNRGMTALLKVSSCDKNTGDYYEDSYEDISAYLLSKNNAIEPRSFSQNSRHRSTRQKQFNATTIPENTTLQSDQEEIDYDDTISVEMKKEDFDIYDEDENCSPRSFQKKTRHYFIAAVERLWDYGMSSSPHVLRNRAQSGSVPQFKKVVFQEFTDGSFTQPLYRGELNEHLGLLGPYIRAEVEDNIMVTFRNQASRPYSFYSSLISYEEDQRQGAEPRKNFVKPNETKTYFWKVQHHMAPTKDEFDCKAWAYFSDVDLEKDVHSGLIGPLLVCHTNTLNPAHGRQVTVQEFALFFTIFDETKSWYFTENMERNCRAPCNIQMEDPTFKENYRFHAINGYIMDTLPGLVMAQDQRIRWYLLSMGSNENIHSIHFSGHVFTVRKKEEYKMALYNLYPGVFETVEMLPSKAGIWRVECLIGEHLHAGMSTLFLVYSNKCQTPLGMASGHIRDFQITASGQYGQWAPKLARLHYSGSINAWSTKEPFSWIKVDLLAPMIIHGIKTQGARQKFSSLYISQFIIMYSLDGKKWQTYRGNSTGTLMVFFGNVDSSGIKHNIFNPPIIARYIRLHPTHYSIRSTLRMELMGCDLNSCSMPLGMESKAISDAQITASSYFTNMFATWSPSKARLHLQGRSNAWRPQVNNPKEWLQVDFQKTMKVTGVTTQGVKSLLTSMYVKEFLISSSQDGHQWTLFFQNGKVKVFQGNQDSFTPVVNSLDPPLLTRYLRIHPQSWVHQIALRMEVLGCEAQDLY", "values": [
      {"measurement": "ratio covalent FVIII/Total FVIII antigen", "setting": "[3]", "value": 0.64},
      {"measurement": "ratio covalent FVIII/Total FVIII antigen", "setting": "[4]", "value": 0.51},
      {"measurement": "ratio covalent FVIII/Total FVIII antigen", "setting": "[5]", "value": 5.43},
      {"measurement": "ratio covalent FVIII/Total FVIII antigen", "setting": "[6]", "value": 5.24},
      {"measurement": "covalent FVIII", "setting": "[7]", "value": 1640, "unit": "amU/ml"},
      {"measurement": "covalent FVIII", "setting": "[8]", "value": 506, "unit": "amU/ml"},
      {"measurement": "covalent FVIII", "setting": "[9]", "value": 693, "unit": "amU/ml"},
      {"measurement": "covalent FVIII", "setting": "[10]", "value": 2740, "unit": "amU/ml"},
      {"measurement": "ratio covalent FVIII/Total FVIII activity", "setting": "[11]", "value": 1.21},
      {"measurement": "ratio covalent FVIII/Total FVIII activity", "setting": "[12]", "value": 1.03},
      {"measurement": "ratio covalent FVIII/Total FVIII activity", "setting": "[13]", "value": 0.76},
      {"measurement": "ratio covalent FVIII/Total FVIII activity", "setting": "[14]", "value": 0.86}
    ]},
    {"molecule": "Factor VIII SingleChain N2129C mutant (other, Single-chain FVIII with partial B-domain deletion; also called FVIII-SC N2129C; Cys residue at FVIII aa position 2129) ATRRYYLGAVELSWDYMQSDLGELPVDARFPPRVPKSFPFNTSVVYKKTLFVEFTDHLFNIAKPRPPWMGLLGPTIQAEVYDTVVITLKNMASHPVSLHAVGVSYWKASEGAEYDDQTSQREKEDDKVFPGGSHTYVWQVLKENGPMASDPLCLTYSYLSHVDLVKDLNSGLIGALLVCREGSLAKEKTQTLHKFILLFAVFDEGKSWHSETKNSLMQDRDAASARAWPKMHTVNGYVNRSLPGLIGCHRKSVYWHVIGMGTTPEVHSIFLEGHTFLVRNHRQASLEISPITFLTAQTLLMDLGQFLLFCHISSHQHDGMEAYVKVDSCPEEPQLRMKNNEEAEDYDDDLTDSEMDVVRFDDDNSPSFIQIRSVAKKHPKTWVHYIAAEEEDWDYAPLVLAPDDRSYKSQYLNNGPQRIGRKYKKVRFMAYTDETFKTREAIQHESGILGPLLYGEVGDTLLIIFKNQASRPYNIYPHGITDVRPLYSRRLPKGVKHLKDFPILPGEIFKYKWTVTVEDGPTKSDPRCLTRYYSSFVNMERDLASGLIGPLLICYKESVDQRGNQIMSDKRNVILFSVFDENRSWYLTENIQRFLPNPAGVQLEDPEFQASNIMHSINGYVFDSLQLSVCLHEVAYWYILSIGAQTDFLSVFFSGYTFKHKMVYEDTLTLFPFSGETVFMSMENPGLWILGCHNSDFRNRGMTALLKVSSCDKNTGDYYEDSYEDISAYLLSKNNAIEPRSFSQNSRHRSTRQKQFNATTIPENTTLQSDQEEIDYDDTISVEMKKEDFDIYDEDENQSPRSFQKKTRHYFIAAVERLWDYGMSSSPHVLRNRAQSGSVPQFKKVVFQEFTDGSFTQPLYRGELNEHLGLLGPYIRAEVEDNIMVTFRNQASRPYSFYSSLISYEEDQRQGAEPRKNFVKPNETKTYFWKVQHHMAPTKDEFDCKAWAYFSDVDLEKDVHSGLIGPLLVCHTNTLNPAHGRQVTVQEFALFFTIFDETKSWYFTENMERNCRAPCNIQMEDPTFKENYRFHAINGYIMDTLPGLVMAQDQRIRWYLLSMGSNENIHSIHFSGHVFTVRKKEEYKMALYNLYPGVFETVEMLPSKAGIWRVECLIGEHLHAGMSTLFLVYSNKCQTPLGMASGHIRDFQITASGQYGQWAPKLARLHYSGSINAWSTKEPFSWIKVDLLAPMIIHGIKTQGARQKFSSLYISQFIIMYSLDGKKWQTYRGNSTGTLMVFFGCVDSSGIKHNIFNPPIIARYIRLHPTHYSIRSTLRMELMGCDLNSCSMPLGMESKAISDAQITASSYFTNMFATWSPSKARLHLQGRSNAWRPQVNNPKEWLQVDFQKTMKVTGVTTQGVKSLLTSMYVKEFLISSSQDGHQWTLFFQNGKVKVFQGNQDSFTPVVNSLDPPLLTRYLRIHPQSWVHQIALRMEVLGCEAQDLY", "values": [
      {"measurement": "ratio covalent FVIII/Total FVIII antigen", "setting": "[15]", "value": 0.33},
      {"measurement": "covalent FVIII", "setting": "[16]", "value": 292, "unit": "amU/ml"},
      {"measurement": "ratio covalent FVIII/Total FVIII activity", "setting": "[17]", "value": 1.02}
    ]}
  ]
}
